According to patent US20230067960A1 (VONSUN PHARMATECH, published 2023):
Non-standard residues stand in square brackets, D forms with d. No end group written: not given here. R1 = not defined here; R2 = not defined here; Aib = CC(C)(N)C(=O)O

Legend:
Experiment in all cases: cell-based or functional assay
[1] = molecular target: glucagon-like peptide-1 receptor
glucagon receptor = molecular target: glucagon receptor
[2] = molecular target: T1, gastric inhibitory peptide receptor
T1 sequence (P48546 whole entry, species assumed, looked up): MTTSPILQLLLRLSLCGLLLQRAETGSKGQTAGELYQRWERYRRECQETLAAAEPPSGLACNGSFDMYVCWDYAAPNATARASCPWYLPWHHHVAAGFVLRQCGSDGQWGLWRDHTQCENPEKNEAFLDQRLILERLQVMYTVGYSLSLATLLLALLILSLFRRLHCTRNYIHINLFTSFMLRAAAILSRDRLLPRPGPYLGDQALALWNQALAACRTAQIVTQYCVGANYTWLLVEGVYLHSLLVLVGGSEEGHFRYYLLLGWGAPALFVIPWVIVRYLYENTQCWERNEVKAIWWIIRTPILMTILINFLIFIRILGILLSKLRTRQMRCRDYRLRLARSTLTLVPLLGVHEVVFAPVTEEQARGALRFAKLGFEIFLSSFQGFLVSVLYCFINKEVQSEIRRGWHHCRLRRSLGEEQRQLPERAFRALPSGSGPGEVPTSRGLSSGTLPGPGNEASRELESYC

B1: triple agonist peptide of SEQ ID NO: 14, chemically modified with R2 side chain (peptide)
peptide: H[Aib]QGTFTSDLSRALEK(R2)IAARLFIEWLIEGGPSSGAPPPS-NH2
modifications: reading uncertain
[1]
  In vitro activity relative to native polypeptide (%), relative to GLP-1 (cAMP HTRF, from EC50): 57%
Glucagon receptor
  In vitro activity relative to native polypeptide (%), relative to GCG (cAMP HTRF, from EC50): 0.49%
[2]
  In vitro activity relative to native polypeptide (%), relative to GIP (cAMP HTRF, from EC50): 3.38%

B2: triple agonist peptide of SEQ ID NO: 5 (peptide)
peptide: H[Aib]QGTFTSDLSAAMEKIAVRLFIEWLREGGPSSGAPPPS
modifications: ends and bridges not checked
[1]
  In vitro activity relative to native polypeptide (%), relative to GLP-1 (cAMP HTRF, from EC50): 38.4%
Glucagon receptor
  In vitro activity relative to native polypeptide (%), relative to GCG (cAMP HTRF, from EC50): 0.72%
[2]
  In vitro activity relative to native polypeptide (%), relative to GIP (cAMP HTRF, from EC50): 1.99%

B3: triple agonist peptide of SEQ ID NO: 10 (peptide)
peptide: H[Aib]QGTFTSDLSRYLEKEAVRLFIEWLIDGGPSSGAPPPS
modifications: ends and bridges not checked
[1]
  In vitro activity relative to native polypeptide (%), relative to GLP-1 (cAMP HTRF, from EC50): 71.6%
Glucagon receptor
  In vitro activity relative to native polypeptide (%), relative to GCG (cAMP HTRF, from EC50): 21.8%
[2]
  In vitro activity relative to native polypeptide (%), relative to GIP (cAMP HTRF, from EC50): 94.7%

B4: triple agonist peptide of SEQ ID NO: 1 (peptide)
peptide: H[Aib]QGTFTSDLSRAMEKIAVRLFIEWLREGGPSSGAPPPS
modifications: ends and bridges not checked
[1]
  In vitro activity relative to native polypeptide (%), relative to GLP-1 (cAMP HTRF, from EC50): 64.7%
Glucagon receptor
  In vitro activity relative to native polypeptide (%), relative to GCG (cAMP HTRF, from EC50): 1.33%
[2]
  In vitro activity relative to native polypeptide (%), relative to GIP (cAMP HTRF, from EC50): 3.99%

B5: triple agonist peptide of SEQ ID NO: 11, chemically modified with R1 side chain (peptide)
peptide: H[Aib]QGTFTSDLSRAMEK(R1)IAVRLFIEWLIEGGPSSGAPPPS-NH2
modifications: reading uncertain
[1]
  In vitro activity relative to native polypeptide (%), relative to GLP-1 (cAMP HTRF, from EC50): 191%
Glucagon receptor
  In vitro activity relative to native polypeptide (%), relative to GCG (cAMP HTRF, from EC50): 3.89%
[2]
  In vitro activity relative to native polypeptide (%), relative to GIP (cAMP HTRF, from EC50): 2.53%

B6: triple agonist peptide of SEQ ID NO: 7 (peptide)
peptide: H[Aib]QGTFTSDLSRALEKIAARLFIEWLIEGGPSSGAPPPS
modifications: ends and bridges not checked
[1]
  In vitro activity relative to native polypeptide (%), relative to GLP-1 (cAMP HTRF, from EC50): 47.5%
Glucagon receptor
  In vitro activity relative to native polypeptide (%), relative to GCG (cAMP HTRF, from EC50): 18.3%
[2]
  In vitro activity relative to native polypeptide (%), relative to GIP (cAMP HTRF, from EC50): 5.74%

B7: triple agonist peptide of SEQ ID NO: 9 (peptide)
peptide: H[Aib]QGTFTSDLSLEQEKIAVRLFIEWLREGGPSSGAPPPS
modifications: ends and bridges not checked
[1]
  In vitro activity relative to native polypeptide (%), relative to GLP-1 (cAMP HTRF, from EC50): 136%
Glucagon receptor
  In vitro activity relative to native polypeptide (%), relative to GCG (cAMP HTRF, from EC50): 20.1%
[2]
  In vitro activity relative to native polypeptide (%), relative to GIP (cAMP HTRF, from EC50): 95.8%

B8: triple agonist peptide of SEQ ID NO: 4 (peptide)
peptide: H[Aib]QGTFTSDLSRAMEKEAVRLFIEWLIDGGPSSGAPPPS
modifications: ends and bridges not checked
[1]
  In vitro activity relative to native polypeptide (%), relative to GLP-1 (cAMP HTRF, from EC50): 71.4%
Glucagon receptor
  In vitro activity relative to native polypeptide (%), relative to GCG (cAMP HTRF, from EC50): 2.17%
[2]
  In vitro activity relative to native polypeptide (%), relative to GIP (cAMP HTRF, from EC50): 7.37%

B9: triple agonist peptide of SEQ ID NO: 13, chemically modified with R2 side chain (peptide)
peptide: H[Aib]QGTFTSDLSRAMEK(R2)IAVRLFIEWLIEGGPSSGAPPPS-NH2
modifications: reading uncertain
[1]
  In vitro activity relative to native polypeptide (%), relative to GLP-1 (cAMP HTRF, from EC50): 217%
Glucagon receptor
  In vitro activity relative to native polypeptide (%), relative to GCG (cAMP HTRF, from EC50): 16.1%
[2]
  In vitro activity relative to native polypeptide (%), relative to GIP (cAMP HTRF, from EC50): 9.83%

B10: triple agonist peptide of SEQ ID NO: 8 (peptide)
peptide: H[Aib]QGTFTSDLSLAQEKEAVRLFIEWLREGGPSSGAPPPS
modifications: ends and bridges not checked
[1]
  In vitro activity relative to native polypeptide (%), relative to GLP-1 (cAMP HTRF, from EC50): 123%
Glucagon receptor
  In vitro activity relative to native polypeptide (%), relative to GCG (cAMP HTRF, from EC50): 1.21%
[2]
  In vitro activity relative to native polypeptide (%), relative to GIP (cAMP HTRF, from EC50): 2.02%

B11: triple agonist peptide of SEQ ID NO: 2 (peptide)
peptide: H[Aib]QGTFTSDLSRAMEKEAVRLFIEWLREGGPSSGAPPPS
modifications: ends and bridges not checked
[1]
  In vitro activity relative to native polypeptide (%), relative to GLP-1 (cAMP HTRF, from EC50): 104%
Glucagon receptor
  In vitro activity relative to native polypeptide (%), relative to GCG (cAMP HTRF, from EC50): 25.1%
[2]
  In vitro activity relative to native polypeptide (%), relative to GIP (cAMP HTRF, from EC50): 34%

B12: triple agonist peptide of SEQ ID NO: 3 (peptide)
peptide: H[Aib]QGTFTSDLSRAMEKEAVRLFIEWLIEGGPSSGAPPPS
modifications: ends and bridges not checked
[1]
  In vitro activity relative to native polypeptide (%), relative to GLP-1 (cAMP HTRF, from EC50): 67.7%
Glucagon receptor
  In vitro activity relative to native polypeptide (%), relative to GCG (cAMP HTRF, from EC50): 12.2%
[2]
  In vitro activity relative to native polypeptide (%), relative to GIP (cAMP HTRF, from EC50): 12.1%

B13: triple agonist peptide of SEQ ID NO: 6 (peptide)
peptide: H[Aib]QGTFTSDLSRAMEKIAVRLFIEWLIEGGPSSGAPPPS
modifications: ends and bridges not checked
[1]
  In vitro activity relative to native polypeptide (%), relative to GLP-1 (cAMP HTRF, from EC50): 116%
Glucagon receptor
  In vitro activity relative to native polypeptide (%), relative to GCG (cAMP HTRF, from EC50): 0.89%
[2]
  In vitro activity relative to native polypeptide (%), relative to GIP (cAMP HTRF, from EC50): 3.27%
